Laboratory results published in patent US6265535A, “Peptides and peptide analogues designed from binding sites of tumor necrosis factor receptor superfamily and their uses” (The Trustees of the University of Pennsylvania, priority 1997, dated 2001).
Bridge positions count the residues as written; N and C are the ends. Ends that are not written are not given here.

Columns and labels:
[1] = test system: L929 cells; test: Cytotoxicity assay: inhibition of TNF-α-induced cytolysis of L929 cells (MTT); format: cell-based, murine; conditions: FIG. 7
Protocol: FIG. 7. Inhibition of TNF-α-induced cytolysis of L929 cells by peptides derived from TNF-R. […] A murine fibroblast cell line, L929, was maintained in Dulbecco's modified Eagle's medium supplemented with 10% FCS, and the medium was replaced with serum free AIM-V medium (GIBCO BRL) immediately before the cells were used for the cytotoxicity assay. L929 cells were seeded at a density of 2×10^5 cells/ml in 96-well microtiter plates, and incubated for hr. at 37° C. under 5% CO2 in air. […] Immunol. Methods 119:203). Briefly, 10 μl of a 10 mg/ml solution of MTT were added to each well for 2 hr. at 37° C., and the color of the formazan product was developed by an overnight incubation at 37° C. with 100 μl of extraction buffer (20% SDS in 50% DMF, pH 4.7). The optical density of colored formazan was measured at 600 nm.

[2] = target: T1, TNF-α binding to TNF-R p55 expressed on U937 cells (Homo sapiens, UniProt P01375); test: Flow cytometry (FACS) of TNF-α binding to its cognate receptor on U937 cells, detected with anti-TNF-R antibody htr-9; format: cell-based; conditions: FIG. 6
T1 construct: endogenous in cells; host or cells: U937 (human leukemia cell line)
T1 sequence (P01375 77-233 limits assumed): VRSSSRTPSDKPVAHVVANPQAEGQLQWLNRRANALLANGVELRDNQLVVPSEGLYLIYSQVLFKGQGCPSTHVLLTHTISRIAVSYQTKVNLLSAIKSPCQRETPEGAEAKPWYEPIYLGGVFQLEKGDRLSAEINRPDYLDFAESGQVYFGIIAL
Excerpt: FIG. 5. […] 1=U937 cells stained with fluorescein-conjugated secondary antibody. 2=U937 cells stained with an anti-TNF receptor antibody (htr-9) and secondary antibody. 3=U937 cells stained with anti-TNF-R antibody in the presence of TNF-α and secondary antibody.
FIG. 6. […] The results represent the means from two independent experiments.
A human leukemia cell line, U937, was maintained in RPMI-1640 medium supplemented with 10% FCS. In order to quantitate the binding of TNF-α to its cognate receptor expressed on U937 cells, 1×10^5 cells were re-suspended in PBS containing 0.5% BSA and 0.05% NaN3 (binding buffer). […] Then, 50 μl of an anti-TNF receptor antibody at 3 μg/ml in binding buffer were added to the cells for 1 hr. at 4° C. The cells were washed in binding buffer and stained with 50 μl (10 μg/ml) of fluorescein-conjugated goat ant-mouse IgG secondary antibody (GIBCO BRL, Gaithersburg, Md.) for 30 min. at 4° C. in the dark. Following washing in binding buffer, the cells were analyzed using FACScan flow cytometer (Becton Dickinson). The gates were set on the live cell population, and the degree of inhibition of TNF-α/cell binding by peptides was calculated on the basis of mean values of each histogram.

[3] = target: T2, Human recombinant TNF-α (human, UniProt P01375); test: competitive radioreceptor assay, 125I-TNF-α on immobilized TNF-R-IgG
[4] = target: T2, Human recombinant TNF-α; test: flow cytometry on U937 cells, TNF-α preincubated with peptide, read out with htr-9
[5] = target: T2, Human recombinant TNF-α; test: competitive radioreceptor assay, dose-response, 125I-TNF-α on immobilized TNF-R-IgG

## CC(C)C[C@@H]1NC(=O)[C@H](Cc2ccc(O)cc2)NC(=O)[C@H](CCC(N)=O)NC(=O)[C@H](CO)NC(=O)[C@H](Cc2c[nH]c3ccccc23)NC(=O)[C@@H](NC(=O)[C@@H](N)Cc2ccc(O)cc2)CSSC[C@@H](C(=O)N[C@@H](Cc2ccc(O)cc2)C(=O)O)NC1=O [WP9QY, YC WSQYL CY]
[1]; peptide at 75 μM, TNF-α 50 pg/ml plus ACT-D 1 μg/ml
  cells protected against TNF-α-induced apoptosis/cytotoxicity: ~90%

## YC ASENH CY (YCASENHCY; disulfide 2-8 (inferred)) [WP5JY, exocyclic peptide from TNF-R loop 1 of domain 2]
[2]
  inhibition of TNF-α binding to U937 cells in dose-response assay (in words): inhibited by each peptide in a dose-dependent manner

## YC WSQNL CY (YCWSQNLCY; disulfide 2-8 (inferred)) [WP9Q, exocyclic peptide from TNF-R loop 1 of domain 3, Gln instead of Glu]
[2]
  inhibition of TNF-α binding to U937 cells in dose-response assay (in words): inhibited by each peptide in a dose-dependent manner
[1]
  inhibition of TNF-α-induced cytotoxicity of L929 cells (in words): dose-dependent inhibitory activity
  inhibitory effect on TNF-α-induced cytotoxicity relative to WP9QY: about half of the effects of WP9QY

## YCWSQNLCY (disulfide 2-8 (inferred)) [WP9Q]
[3]
  fold activity against the best WP5 peptides: 2 fold

## YCWSQYLCY (disulfide 2-8 (inferred)) [WP9QY]
[4]
  IC50: 75 µM
[5]
  IC50: 5 µM
